Key:
[1] = biological target: ctPrp43 (DEAH-box RNA helicase Prp43 from Chaetomium thermophilum), wild type (C. thermophilum) (UniProt G0RY84)
[2] = biological target: ctPrp43 (DEAH-box RNA helicase Prp43 from Chaetomium thermophilum), wild type (C. thermophilum) (UniProt G0RY84); remark: listed apart in the source
[3] = biological target: ctPrp43(F181C, N623C) (C. thermophilum)
[4] = biological target: ctPrp43(R180G, F181G) (C. thermophilum)
[5] = biological target: ctPrp43(R180G, F181G, Y348G, T350G) (C. thermophilum)
[6] = biological target: ctPrp43(Y348G, T350G) (C. thermophilum)

| Substance | helicase activity (maximal unwinding velocity of a dsRNA with 3' overhang; 250 nM ctPrp43, 1.25 uM G-patch; ctPrp43 alone 0.54 nM/min) [1] | ATPase activity kcat with five-fold excess of G-patch, no RNA (ctPrp43 alone 1.81 min^-1) [2] | ATPase activity kcat with five-fold excess of G-patch, no RNA (ctPrp43-IDSB alone 5.04 min^-1) [3] | ATPase activity kcat with five-fold excess of G-patch, no RNA (ctPrp43-HT alone 13.21 min^-1) [4] | ATPase activity kcat with five-fold excess of G-patch, no RNA (ctPrp43-HT&HL alone 7.61 min^-1) [5] | ATPase activity kcat with five-fold excess of G-patch, no RNA (ctPrp43-HL alone 6.19 min^-1) [6] |
| --- | --- | --- | --- | --- | --- | --- |
| ctPfa1(662-742), truncated G-patch construct of the C. thermophilum Pfa1 homolog (domain or fragment) | 60 nM/min | 0.605 s⁻¹ | 3.32 s⁻¹ | 1.02 s⁻¹ | 1.89 s⁻¹ | 1.44 s⁻¹ |
| ctNtr1(242-305), truncated G-patch construct of the C. thermophilum Ntr1 homolog (domain or fragment) | 1.98 nM/min | 0.0693 s⁻¹ |  |  |  |  |

— paper PMC5262380, “Structural insights into the mechanism of the DEAH-box RNA helicase Prp43” (eLife, 2017)
